Assay results taken from paper PMC11417369, “DNA sequence and chromatin differentiate sequence-specific transcription factor binding in the human malaria parasite Plasmodium falciparum”.

B1: CACACA_negctrl_site460 (dsDNA)
DNA 1: ATAATGTATTTATATATATATATATATTTTAATAAA
DNA 2: TTTATTAAAATATATATATATATATAAATACATTAT
B2: CACACA_negctrl_site1155 (dsDNA)
DNA 1: TAAATGTCTTCAATGAAGTGGAAATGCTGTTATATA
DNA 2: TATATAACAGCATTTCCACTTCATTGAAGACATTTA
B3: CACACA_site6208 (dsDNA)
DNA 1: ATATAAATATGACACACACACAAAAAAAATAAAGAC
DNA 2: GTCTTTATTTTTTTTGTGTGTGTGTCATATTTATAT
B4: CACACA_negctrl_site979 (dsDNA)
DNA 1: ATGTAATTCTTTTACTTTTTTTTTTTTTTTTTTTTT
DNA 2: AAAAAAAAAAAAAAAAAAAAAGTAAAAGAATTACAT
B5: CACACA_negctrl_site825 (dsDNA)
DNA 1: TAAGTTCACAAAAAAAAAAAAAAATAAAGAAATAAA
DNA 2: TTTATTTCTTTATTTTTTTTTTTTTTTGTGAACTTA
B6: CACACA_negctrl_site245 (dsDNA)
DNA 1: TTTTTATTTTATAATATATTCCTTTTCCTTTCTTTC
DNA 2: GAAAGAAAGGAAAAGGAATATATTATAAAATAAAAA
B7: CACACA_negctrl_site1391 (dsDNA)
DNA 1: ATTTTTTTTTTTTTTTTTTTTTTTTTTTGATTTGTG
DNA 2: CACAAATCAAAAAAAAAAAAAAAAAAAAAAAAAAAT
B8: CACACA_negctrl_site1645 (dsDNA)
DNA 1: TATTTTAGAGAAAAAAATAAATTACAAAATGTTAGG
DNA 2: CCTAACATTTTGTAATTTATTTTTTTCTCTAAAATA
B9: CACACA_negctrl_site214 (dsDNA)
DNA 1: TTTTTATTTTTATACATATAATATATTATGATTAAA
DNA 2: TTTAATCATAATATATTATATGTATAAAAATAAAAA
B10: CACACA_negctrl_site786 (dsDNA)
DNA 1: AATAATAAATATATATATATATATATATATATATTT
DNA 2: AAATATATATATATATATATATATATATTTATTATT
B11: CACACA_negctrl_site62 (dsDNA)
DNA 1: TATATGTTAATTTTTTTTTTTTTTTTTTTTTTTATA
DNA 2: TATAAAAAAAAAAAAAAAAAAAAAAATTAACATATA
B12: CACACA_negctrl_site753 (dsDNA)
DNA 1: ATTTTTTTTTAATGCAATATATTTTGAAAATTTTAT
DNA 2: ATAAAATTTTCAAAATATATTGCATTAAAAAAAAAT
B13: CACACA_negctrl_site515 (dsDNA)
DNA 1: GACTCATTAAGGATTATTCCTAATGATCAAAAGAAC
DNA 2: GTTCTTTTGATCATTAGGAATAATCCTTAATGAGTC
B14: CACACA_site8094 (dsDNA)
DNA 1: AAAAAAATTTGGCATACACACACACCCCCACCCACA
DNA 2: TGTGGGTGGGGGTGTGTGTGTATGCCAAATTTTTTT
B15: CACACA_negctrl_site1574 (dsDNA)
DNA 1: TTTTTTAAAAGAAAATAAAAAATAAGCATAATATGA
DNA 2: TCATATTATGCTTATTTTTTATTTTCTTTTAAAAAA
B16: CACACA_negctrl_site810 (dsDNA)
DNA 1: AGAAAGGAGGAAATAAAAGGACTTCTTTTTTTATAT
DNA 2: ATATAAAAAAAGAAGTCCTTTTATTTCCTCCTTTCT
B17: CACACA_negctrl_site237 (dsDNA)
DNA 1: ATTCTATTTTTTATAAAACCATGTCATCAACATAGG
DNA 2: CCTATGTTGATGACATGGTTTTATAAAAAATAGAAT
B18: CACACA_negctrl_site1620 (dsDNA)
DNA 1: ATCTAAATAATATATATATATAATATTAATAATATA
DNA 2: TATATTATTAATATTATATATATATATTATTTAGAT

These binders were tested against T1, PF3D7_0420300 D1 (Plasmodium falciparum, UniProt Q8I1N6 1956-2015) (assay: gcPBM; about 25 ug protein; PBS, 1% milk, 0.2 mg/ml BSA, salmon testes DNA, 0.03% Triton X-100). Conditions: tags: N-terminal GST (pGEX-4T-1), kept; label: surface-attached array probe.
T1 sequence: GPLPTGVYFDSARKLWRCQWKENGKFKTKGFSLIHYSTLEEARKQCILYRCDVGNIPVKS
In the case of B1, the binding signal is reported as 8.96 ln median PBM intensity, better of two orientations. For B2, the binding signal was 8.99 ln median PBM intensity, better of two orientations. For B3, the binding signal was 10.6 ln median PBM intensity, better of two orientations. B4 was tested, and the binding signal was 8.97 ln median PBM intensity, better of two orientations. In the case of B5, the binding signal is reported as 8.98 ln median PBM intensity, better of two orientations. With B6 the binding signal was 8.97 ln median PBM intensity, better of two orientations. With B7 the binding signal was 8.99 ln median PBM intensity, better of two orientations. B8 was tested, and the binding signal was 8.98 ln median PBM intensity, better of two orientations. B9 was tested, and the binding signal was 8.98 ln median PBM intensity, better of two orientations. For B10, the binding signal was 9 ln median PBM intensity, better of two orientations. With B11 the binding signal was 8.98 ln median PBM intensity, better of two orientations. For B12, the binding signal was 8.96 ln median PBM intensity, better of two orientations. B13 was tested, and the binding signal was 9 ln median PBM intensity, better of two orientations. For B14, the binding signal was 10.6 ln median PBM intensity, better of two orientations. B15 was tested, and the binding signal was 8.99 ln median PBM intensity, better of two orientations. In the case of B16, the binding signal is reported as 8.99 ln median PBM intensity, better of two orientations. B17 was tested, and the binding signal was 8.99 ln median PBM intensity, better of two orientations. B18 was tested, and the binding signal was 8.99 ln median PBM intensity, better of two orientations.
